Data reported in paper PMC4144951, “Dissecting the Functional Role of the N-Terminal Domain of the Human Small Heat Shock Protein HSPB6” (PLoS ONE, 2014).
Residue numbers refer to the chain shown, from its start. Numbers in names are those of the source. One block for each molecule: values may come before it.

Key:
HSPB6 Δ31–35 (human) [1] = target: HSPB6 Δ31–35 (human) (UniProt O14558); assay: SEC; data not shown; three loaded concentrations, no larger oligomeric species seen; size of the oligomer (dimer)
HSPB6 Δ31–35 (human) [2] = target: HSPB6 Δ31–35 (human) (UniProt O14558); assay: SEC-coupled SAXS; inline HPLC, Shodex KW404-4F, 20°C, 20 mM HEPES, 150 mM NaCl, pH 7.4, 2.5 mM DTT; 75 µl of 5 mg/ml HSPB6 or equivalent molarity loaded (ΔN11: 111 µl of 3.37 mg/ml); mass at the peak maximum from I0 and Porod volume; number of subunits of the oligomer
HSPB6 Δ31–40 (human) = HSPB6 Δ31–40 (human) (UniProt O14558); assay: as above
[3] = target: T1, human HSPB6, wild type, full length (human), O14558; assay: SEC; data not shown; three loaded concentrations, no larger oligomeric species seen; size of the oligomer (dimer); details: remark: other sources report otherwise
T1 chain: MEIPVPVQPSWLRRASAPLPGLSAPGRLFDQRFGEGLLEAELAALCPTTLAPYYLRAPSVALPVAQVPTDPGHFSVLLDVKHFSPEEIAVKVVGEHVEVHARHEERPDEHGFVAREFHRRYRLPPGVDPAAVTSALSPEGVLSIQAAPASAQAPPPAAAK

[4] = target: T1, human HSPB6, wild type, full length …; assay: SEC-coupled SAXS; inline HPLC, Shodex KW404-4F, 20°C, 20 mM HEPES, 150 mM NaCl, pH 7.4, 2.5 mM DTT; 75 µl of 5 mg/ml HSPB6 or equivalent molarity loaded (ΔN11: 111 µl of 3.37 mg/ml); mass at the peak maximum from I0 and Porod volume; number of subunits of the oligomer; details: remark: other sources report otherwise
[5] = target: T1, human HSPB6, wild type, full length …; assay: SEC; 100 µl at 2.5, 5 and 10 mg/ml on Superdex 200 10/300 GL, 4°C, 25 mM HEPES pH 7.5, 150 mM NaCl, 2.5 mM DTT; apparent MW from column calibration; the shift of the peak with loaded concentration is read as self-association of the dimers with each other (dimer to higher species); details: remark: other sources report otherwise
[6] = target: the molecule itself; assay: SEC-coupled SAXS; inline HPLC, Shodex KW404-4F, 20°C, 20 mM HEPES, 150 mM NaCl, pH 7.4, 2.5 mM DTT; 75 µl of 5 mg/ml HSPB6 or equivalent molarity loaded (ΔN11: 111 µl of 3.37 mg/ml); mass at the peak maximum from I0 and Porod volume; number of subunits of the oligomer
[7] = target: the molecule itself; assay: SEC; 100 µl at 2.5, 5 and 10 mg/ml on Superdex 200 10/300 GL, 4°C, 25 mM HEPES pH 7.5, 150 mM NaCl, 2.5 mM DTT; apparent MW from column calibration; the shift of the peak with loaded concentration is read as self-association of the dimers with each other (dimer to higher species)
[8] = target: the molecule itself; assay: as above; remark: listed apart in the source
[9] = target: human recombinant insulin (human, UniProt P01308 25-54; P01308 90-110); assay: cell-based or functional assay
human recombinant insulin, sequence (P01308 25-54, chain 1 of 2): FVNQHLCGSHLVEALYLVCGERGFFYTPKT
human recombinant insulin, sequence (P01308 90-110, chain 2 of 2): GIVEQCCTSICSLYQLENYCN

[10] = target: the molecule itself; assay: SEC; data not shown; three loaded concentrations, no larger oligomeric species seen; size of the oligomer (dimer)

B2: HSPB6 Q31A (natural protein, human, UniProt O14558 1-160, looked up)
chain: T1 chain with Q31A
notes: HSPB6, human, full-length protein with the point mutation Q31A; Mixture of dimers and what appear to be tetramers; source: E. coli NiCo21 (DE3) with pRARE2, purified (subtractive IMAC, anion exchange, SEC); not shown: SUMO, N-terminal, cleaved
stoichiometry N [6]: 4.2 subunits
stoichiometry N [7]: ~4
concentration dependence of apparent MW [8]: 1.1 kDa/(mg/ml)

B3: HSPB6 Q31L (natural protein, human, UniProt O14558 1-160, looked up)
chain: T1 chain with Q31L
notes: HSPB6, human, full-length protein with the point mutation Q31L; source: E. coli NiCo21 (DE3) with pRARE2, purified (subtractive IMAC, anion exchange, SEC); not shown: SUMO, N-terminal, cleaved
stoichiometry N [6]: 4.3 subunits
concentration dependence of apparent MW [8]: 1.87 kDa/(mg/ml)

B4: HSPB6 F33Y (natural protein, human, UniProt O14558 1-160, looked up)
chain: T1 chain with F33Y
notes: HSPB6, human, full-length protein with the point mutation F33Y; source: E. coli NiCo21 (DE3) with pRARE2, purified (subtractive IMAC, anion exchange, SEC); not shown: SUMO, N-terminal, cleaved
stoichiometry N [6]: 1.9 subunits

B5: HSPB6 F33A (natural protein, human, UniProt O14558 1-160, looked up)
chain: T1 chain with F33A
notes: HSPB6, human, full-length protein with the point mutation F33A; source: E. coli NiCo21 (DE3) with pRARE2, purified (subtractive IMAC, anion exchange, SEC); not shown: SUMO, N-terminal, cleaved
stoichiometry N [6]: 2.3 subunits

B9: HSPB6 ΔN11 (domain or fragment, human, UniProt O14558 12-160, looked up)
chain: LRRASAPLPGLSAPGRLFDQRFGEGLLEAELAALCPTTLAPYYLRAPSVALPVAQVPTDPGHFSVLLDVKHFSPEEIAVKVVGEHVEVHARHEERPDEHGFVAREFHRRYRLPPGVDPAAVTSALSPEGVLSIQAAPASAQAPPPAAAK
notes: HSPB6, human, without its first 11 residues (ΔN10 begins with the sole tryptophan; ΔN11 removes it too); Prone to aggregate; could not be concentrated above about 4-5 mg/ml; also called ΔN11-construct; source: E. coli NiCo21 (DE3) with pRARE2, purified (subtractive IMAC, anion exchange, SEC); not shown: SUMO, N-terminal, cleaved
stoichiometry N [6]: 2.5 subunits

B11: HSPB6 Δ61–70 (natural protein, human, UniProt O14558 1-160, looked up)
chain: MEIPVPVQPSWLRRASAPLPGLSAPGRLFDQRFGEGLLEAELAALCPTTLAPYYLRAPSVPGHFSVLLDVKHFSPEEIAVKVVGEHVEVHARHEERPDEHGFVAREFHRRYRLPPGVDPAAVTSALSPEGVLSIQAAPASAQAPPPAAAK
notes: HSPB6, human, full-length protein with residues 61-70 deleted; By SAXS closer to a tetramer than to a dimer; source: E. coli NiCo21 (DE3) with pRARE2, purified (subtractive IMAC, anion exchange, SEC); not shown: SUMO, N-terminal, cleaved
stoichiometry N [6]: 3.5 subunits
concentration dependence of apparent MW [8]: 3.4 kDa/(mg/ml)

B12: HSPB6 Δ36–40 (natural protein, human, UniProt O14558 1-160, looked up)
chain: MEIPVPVQPSWLRRASAPLPGLSAPGRLFDQRFGEELAALCPTTLAPYYLRAPSVALPVAQVPTDPGHFSVLLDVKHFSPEEIAVKVVGEHVEVHARHEERPDEHGFVAREFHRRYRLPPGVDPAAVTSALSPEGVLSIQAAPASAQAPPPAAAK
notes: HSPB6, human, full-length protein with residues 36-40 deleted; source: E. coli NiCo21 (DE3) with pRARE2, purified (subtractive IMAC, anion exchange, SEC); not shown: SUMO, N-terminal, cleaved
stoichiometry N [10]: 2
concentration dependence of apparent MW [8]: 1.8 kDa/(mg/ml)

The next lines start with results.

stoichiometry N (HSPB6 Δ31–35 (human) [1]): 2
stoichiometry N (HSPB6 Δ31–35 (human) [2]): 2.2 subunits
Molecule: HSPB6 Δ31–35 (from UniProt O14558 1-160) (natural protein)

stoichiometry N (HSPB6 Δ31–40 (human)): 2 subunits
Molecule: HSPB6 Δ31–40 (from UniProt O14558 1-160) (natural protein)

stoichiometry N [3]: 2
stoichiometry N [4]: 2.2 subunits
concentration dependence of apparent MW [5]: 1.51 kDa/(mg/ml)
B1: human HSPB6, wild type, full length, O14558 1-160 (natural protein)
chain: T1 chain

percentage protection against DTT-induced aggregation of insulin (A340 after 90 min, 37°C), insulin:sHSP 1:0.2 to 1:0.05 [9]: ~50 % decrease
B6: HSPB6 Δ11–20 (natural protein, human, UniProt O14558 1-160, looked up)
chain: MEIPVPVQPSGLSAPGRLFDQRFGEGLLEAELAALCPTTLAPYYLRAPSVALPVAQVPTDPGHFSVLLDVKHFSPEEIAVKVVGEHVEVHARHEERPDEHGFVAREFHRRYRLPPGVDPAAVTSALSPEGVLSIQAAPASAQAPPPAAAK
notes: HSPB6, human, full-length protein with residues 11-20 deleted; also called ΔN11–20; source: E. coli NiCo21 (DE3) with pRARE2, purified (subtractive IMAC, anion exchange, SEC); not shown: SUMO, N-terminal, cleaved
stoichiometry N [6]: 1.8 subunits
concentration dependence of apparent MW [8]: 0.81 kDa/(mg/ml)

percentage protection against DTT-induced aggregation of insulin (A340 after 90 min, 37°C), insulin:sHSP 1:0.2 to 1:0.05 [9]: ~50 % decrease
B7: HSPB6 Δ41–50 (natural protein, human, UniProt O14558 1-160, looked up)
chain: MEIPVPVQPSWLRRASAPLPGLSAPGRLFDQRFGEGLLEAAPYYLRAPSVALPVAQVPTDPGHFSVLLDVKHFSPEEIAVKVVGEHVEVHARHEERPDEHGFVAREFHRRYRLPPGVDPAAVTSALSPEGVLSIQAAPASAQAPPPAAAK
notes: HSPB6, human, full-length protein with residues 41-50 deleted; source: E. coli NiCo21 (DE3) with pRARE2, purified (subtractive IMAC, anion exchange, SEC); not shown: SUMO, N-terminal, cleaved
stoichiometry N [6]: 2.3 subunits
concentration dependence of apparent MW [8]: 1.92 kDa/(mg/ml)

percentage protection against DTT-induced aggregation of insulin (A340 after 90 min, 37°C), insulin:sHSP 1:0.2 to 1:0.05 [9]: ~50 % decrease
B8: HSPB6 Δ21–30 (natural protein, human, UniProt O14558 1-160, looked up)
chain: B6 chain with G11W, S13R, A14R, P15A, G16S, R17A, L18P, F19L, D20P
notes: HSPB6, human, full-length protein with residues 21-30 deleted; source: E. coli NiCo21 (DE3) with pRARE2, purified (subtractive IMAC, anion exchange, SEC); not shown: SUMO, N-terminal, cleaved
stoichiometry N [6]: 2.2 subunits
concentration dependence of apparent MW [8]: 1.29 kDa/(mg/ml)

percentage protection against DTT-induced aggregation of insulin (A340 after 90 min, 37°C), insulin:sHSP 1:0.2 to 1:0.05 [9]: ~50 % decrease
B10: HSPB6 Δ51–60 (natural protein, human, UniProt O14558 1-160, looked up)
chain: B11 chain with P52L, Y53P, Y54V, L55A, R56Q, A57V, S59T, V60D
notes: HSPB6, human, full-length protein with residues 51-60 deleted; source: E. coli NiCo21 (DE3) with pRARE2, purified (subtractive IMAC, anion exchange, SEC); not shown: SUMO, N-terminal, cleaved
stoichiometry N [6]: 1.9 subunits
concentration dependence of apparent MW [8]: 0.31 kDa/(mg/ml)
